# Reference: patent publication US7479276
# How the values were obtained:
# [1] = target: human transferrin receptor (TfR) (human) (UniProt P02786); assay: FACS on DU145 cells, percent of cells above the fluorescence threshold
# [2] = target: human transferrin receptor (TfR) (human) (UniProt P02786); assay: indirect cellular ELISA on fixed JSQ-3 cells; highest concentration of Hb21 (100 µl), positive control
# [3] = target: human transferrin receptor (TfR) (human) (UniProt P02786); assay: FACS on JSQ-3 cells, percent of cells above the fluorescence threshold
# [4] = target: human transferrin receptor (TfR) (human) (UniProt P02786); assay: indirect cellular ELISA on fixed JSQ-3 cells, anti-His detection; 1.5 µg of protein
# [5] = target: human transferrin receptor (TfR) (human) (UniProt P02786); assay: indirect cellular ELISA on fixed JSQ-3 cells, anti-His detection; 0.6 µg of protein
# [6] = target: human transferrin receptor (TfR) (human) (UniProt P02786); assay: indirect cellular ELISA on fixed JSQ-3 cells, anti-His detection
# [7] = target: human transferrin receptor (TfR) (human) (UniProt P02786); assay: indirect cellular ELISA on fixed JSQ-3 cells, anti-His detection; 3 µg of protein
# human transferrin receptor (TfR) (human), sequence (P02786 whole entry): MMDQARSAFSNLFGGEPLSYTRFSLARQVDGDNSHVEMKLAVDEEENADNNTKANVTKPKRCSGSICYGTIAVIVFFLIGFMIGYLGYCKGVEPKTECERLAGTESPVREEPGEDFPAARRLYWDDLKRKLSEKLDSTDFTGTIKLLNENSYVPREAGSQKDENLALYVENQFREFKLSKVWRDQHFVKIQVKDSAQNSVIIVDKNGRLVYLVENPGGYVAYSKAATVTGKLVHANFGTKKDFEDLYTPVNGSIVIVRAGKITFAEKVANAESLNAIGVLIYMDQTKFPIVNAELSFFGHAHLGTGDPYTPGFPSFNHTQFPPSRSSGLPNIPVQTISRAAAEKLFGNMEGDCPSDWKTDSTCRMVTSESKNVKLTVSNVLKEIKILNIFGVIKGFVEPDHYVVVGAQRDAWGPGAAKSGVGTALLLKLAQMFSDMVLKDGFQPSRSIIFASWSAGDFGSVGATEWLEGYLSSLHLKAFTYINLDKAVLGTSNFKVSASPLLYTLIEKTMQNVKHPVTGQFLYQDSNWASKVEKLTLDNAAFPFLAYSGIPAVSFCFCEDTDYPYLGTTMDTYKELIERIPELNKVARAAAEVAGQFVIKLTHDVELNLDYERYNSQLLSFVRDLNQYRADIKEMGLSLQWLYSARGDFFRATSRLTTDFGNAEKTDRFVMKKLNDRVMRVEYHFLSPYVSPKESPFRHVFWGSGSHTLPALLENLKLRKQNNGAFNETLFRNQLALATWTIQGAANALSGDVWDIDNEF
Substance,% Positive [1] [%],OD490 [2] [OD490],% Positive [3] [%],OD490 [4] [OD490],OD490 [5] [OD490],OD490 [6] [OD490],OD490 [7] [OD490]
HB21 anti-transferrin receptor monoclonal antibody,98.7,0.033,99.4,,,,
"TfRscFv containing a C-terminal cysteine, with a His tag",,,,0.1,0.06,0.235,0.132
